Data as given in US6730301.

Experiments:
Experiment in all cases: cell-based or functional assay
[1] = biological target: MIP-1α/RANTES receptor (Homo sapiens (Human)) (UniProt P32246)
[2] = biological target: MCP-1RB (monocyte chemoattractant protein-1 receptor B) (human) (UniProt P41597)
MIP-1α/RANTES receptor = biological target: T1, MIP-1α/RANTES receptor (Homo sapiens (Human), UniProt P32246 1-355)
T1 sequence: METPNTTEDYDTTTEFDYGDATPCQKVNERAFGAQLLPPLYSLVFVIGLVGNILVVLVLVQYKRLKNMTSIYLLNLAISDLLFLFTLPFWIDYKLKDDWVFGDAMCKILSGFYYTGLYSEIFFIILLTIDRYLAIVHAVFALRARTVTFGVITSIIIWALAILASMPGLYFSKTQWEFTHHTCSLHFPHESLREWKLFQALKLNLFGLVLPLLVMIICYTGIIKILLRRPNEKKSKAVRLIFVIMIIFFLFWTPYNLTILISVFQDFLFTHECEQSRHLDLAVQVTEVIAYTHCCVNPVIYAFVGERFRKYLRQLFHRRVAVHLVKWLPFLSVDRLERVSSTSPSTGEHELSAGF

MCP-1RB (monocyte chemoattractant protein-1 receptor B) (human), sequence (P41597 other isoform, or with tags, fused parts or gaps): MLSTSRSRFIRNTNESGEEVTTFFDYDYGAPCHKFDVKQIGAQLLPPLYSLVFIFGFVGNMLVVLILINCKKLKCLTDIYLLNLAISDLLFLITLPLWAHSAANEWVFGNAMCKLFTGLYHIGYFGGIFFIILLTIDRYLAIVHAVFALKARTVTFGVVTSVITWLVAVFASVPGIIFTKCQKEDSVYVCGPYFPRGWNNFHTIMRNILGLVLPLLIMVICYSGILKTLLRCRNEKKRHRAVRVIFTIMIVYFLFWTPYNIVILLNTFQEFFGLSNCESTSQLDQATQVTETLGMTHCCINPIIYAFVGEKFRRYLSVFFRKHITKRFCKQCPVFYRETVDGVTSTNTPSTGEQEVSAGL

Gro-α (from UniProt P09341 35-107) (ligand)
IC50, Inhibition of Adenylyl Cyclase [1]: > 1000 nM
IC50, Inhibition of Adenylyl Cyclase [2]: > 1000 nM

IL-8 (interleukin-8) (from UniProt P10145 28-99) (ligand)
IC50, Inhibition of Adenylyl Cyclase [2]: > 1000 nM

B1: RANTES (ligand, UniProt P13501 24-91, looked up)
chain: SPYSSDTTPCCFAYIARPLPRAHIKEYFYTSGKCSNPAVVFVTRKNRQVCANPEKKWVREYINSLEMS
IC50, Inhibition of Adenylyl Cyclase (MIP-1α/RANTES receptor): 0.14 nM
Selectivity (against MCP-1RB), inhibition of adenylyl cyclase (MIP-1α/RANTES receptor): > 7000 fold
IC50, Inhibition of Adenylyl Cyclase [2]: > 1000 nM

B2: MIP-1α (ligand, UniProt P10147 27-92, looked up)
chain: ADTPTACCFSYTSRQIPQNFIADYFETSSQCSKPGVIFLTKRSRQVCADPSEEWVQKYVSDLELSA
IC50, Inhibition of Adenylyl Cyclase (MIP-1α/RANTES receptor): 0.11 nM
Selectivity (against MCP-1RB), inhibition of adenylyl cyclase (MIP-1α/RANTES receptor): > 9000 fold
IC50, Inhibition of Adenylyl Cyclase [2]: > 1000 nM

B3: MIP-1β (ligand, UniProt P13236 24-92, looked up)
chain: APMGSDPPTACCFSYTARKLPRNFVVDYYETSSLCSQPAVVFQTKRSKQVCADPSESWVQEYVYDLELN
IC50, Inhibition of Adenylyl Cyclase (MIP-1α/RANTES receptor): 10 nM
Selectivity (against MCP-1RB), inhibition of adenylyl cyclase (MIP-1α/RANTES receptor): > 100 fold
IC50, Inhibition of Adenylyl Cyclase [2]: > 1000 nM
